Data published in US20120294802A1 (ALDERBIO, published 2012).

T1: human Calcitonin Gene Related Peptide alpha (Homo sapiens, C-terminal amide (-NH2 printed after the last residue F; the filing words it as 'the N-terminal phenylalanine is amidated'); 125I radiolabeled in the receptor binding assay of Example 6)
T1 construct: 37-residue peptide bought from American Peptides and Bachem; Coated directly on plates in the ELISA of the recombinant antibodies; also called CGRPα; CGRP-alpha
T1 peptide: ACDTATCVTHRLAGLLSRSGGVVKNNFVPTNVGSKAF

B1: Antibody Ab2 (antibody, human IgG1, kappa, N297A)
heavy: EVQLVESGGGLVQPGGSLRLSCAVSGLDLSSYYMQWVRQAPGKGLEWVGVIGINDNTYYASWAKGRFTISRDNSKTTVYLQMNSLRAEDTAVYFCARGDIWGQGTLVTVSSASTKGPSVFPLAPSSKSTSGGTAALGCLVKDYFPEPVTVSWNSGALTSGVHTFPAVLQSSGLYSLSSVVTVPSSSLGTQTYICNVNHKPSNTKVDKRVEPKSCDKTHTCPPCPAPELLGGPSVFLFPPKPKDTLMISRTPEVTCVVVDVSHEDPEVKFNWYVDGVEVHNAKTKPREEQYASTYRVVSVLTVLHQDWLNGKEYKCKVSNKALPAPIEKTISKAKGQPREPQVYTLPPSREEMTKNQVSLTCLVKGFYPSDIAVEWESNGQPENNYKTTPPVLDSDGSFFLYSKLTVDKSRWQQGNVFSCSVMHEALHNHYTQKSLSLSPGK
light: QVLTQSPSSLSASVGDRVTINCQASQSVYDNNYLAWYQQKPGKVPKQLIYSTSTLASGVPSRFSGSGSGTDFTLTISSLQPEDVATYYCLGSYDCSSGDCFVFGGGTKVEIKRTVAAPSVFIFPPSDEQLKSGTASVVCLLNNFYPREAKVQWKVDNALQSGNSQESVTEQDSKDSTYSLSSTLTLSKADYEKHKVYACEVTHQGLSSPVTKSFNRGEC
notes: Humanized anti-CGRP antibody, full length
B2: Antibody Ab12 (antibody, human IgG1, kappa, N297A, V domains shown)
VH: EVQLVESGGGLVQPGGSLRLSCAVSGIDVTNYYMQWVRQAPGKGLEWVGVIGVNGKRYYASWAKGRFTISRDNSKTTVYLQMNSLRAEDTAVYFCARGDIWGQGTLVTVSS
VL: QVLTQSPSSLSASVGDRVTINCRASQSVYYNNYLAWYQQKPGKVPKQLIYSTSTLASGVPSRFSGSGSGTDFTLTISSLQPEDVATYYCLGSYDCSNGDCFVFGGGTKVEIKR
notes: as for B1
B3: Antibody Ab6 (antibody, human IgG1, kappa, N297A)
heavy: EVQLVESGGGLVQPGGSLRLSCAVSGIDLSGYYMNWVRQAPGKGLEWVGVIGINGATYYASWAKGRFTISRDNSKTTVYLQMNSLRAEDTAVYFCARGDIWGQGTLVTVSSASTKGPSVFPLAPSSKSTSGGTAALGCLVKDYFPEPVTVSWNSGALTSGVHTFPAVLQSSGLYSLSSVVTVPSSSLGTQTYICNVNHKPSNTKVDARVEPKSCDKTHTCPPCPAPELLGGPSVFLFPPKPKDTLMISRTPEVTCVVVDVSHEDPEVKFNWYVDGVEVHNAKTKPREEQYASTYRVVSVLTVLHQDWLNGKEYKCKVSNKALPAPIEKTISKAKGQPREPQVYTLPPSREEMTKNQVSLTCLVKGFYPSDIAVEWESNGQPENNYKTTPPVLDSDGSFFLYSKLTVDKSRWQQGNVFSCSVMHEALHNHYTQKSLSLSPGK
light: QVLTQSPSSLSASVGDRVTINCQASQSVYHNTYLAWYQQKPGKVPKQLIYDASTLASGVPSRFSGSGSGTDFTLTISSLQPEDVATYYCLGSYDCTNGDCFVFGGGTKVEIKRTVAAPSVFIFPPSDEQLKSGTASVVCLLNNFYPREAKVQWKVDNALQSGNSQESVTEQDSKDSTYSLSSTLTLSKADYEKHKVYACEVTHQGLSSPVTKSFNRGEC
notes: as for B1
B4: Antibody Ab10 (antibody, human IgG1, kappa, N297A)
heavy: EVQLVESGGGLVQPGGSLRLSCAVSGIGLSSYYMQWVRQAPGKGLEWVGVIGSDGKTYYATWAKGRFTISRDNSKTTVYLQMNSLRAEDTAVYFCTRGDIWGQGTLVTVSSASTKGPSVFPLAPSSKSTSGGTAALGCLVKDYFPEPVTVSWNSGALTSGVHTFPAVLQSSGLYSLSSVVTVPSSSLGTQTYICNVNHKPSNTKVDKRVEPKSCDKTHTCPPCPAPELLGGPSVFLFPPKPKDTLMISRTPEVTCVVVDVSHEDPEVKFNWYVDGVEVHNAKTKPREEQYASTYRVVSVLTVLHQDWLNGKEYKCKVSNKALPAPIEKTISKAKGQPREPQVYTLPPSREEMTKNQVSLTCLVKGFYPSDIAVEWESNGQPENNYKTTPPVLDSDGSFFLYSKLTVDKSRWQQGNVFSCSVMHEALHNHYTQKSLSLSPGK
light: QVLTQSPSSLSASVGDRVTINCQASQNVYNNNYLAWYQQKPGKVPKQLIYSTSTLASGVPSRFSGSGSGTDFTLTISSLQPEDVATYYCLGSYDCSRGDCFVFGGGTKVEIKRTVAAPSVFIFPPSDEQLKSGTASVVCLLNNFYPREAKVQWKVDNALQSGNSQESVTEQDSKDSTYSLSSTLTLSKADYEKHKVYACEVTHQGLSSPVTKSFNRGEC
notes: as for B1
B5: Antibody Ab3 (antibody, human IgG1, kappa, N297A)
heavy: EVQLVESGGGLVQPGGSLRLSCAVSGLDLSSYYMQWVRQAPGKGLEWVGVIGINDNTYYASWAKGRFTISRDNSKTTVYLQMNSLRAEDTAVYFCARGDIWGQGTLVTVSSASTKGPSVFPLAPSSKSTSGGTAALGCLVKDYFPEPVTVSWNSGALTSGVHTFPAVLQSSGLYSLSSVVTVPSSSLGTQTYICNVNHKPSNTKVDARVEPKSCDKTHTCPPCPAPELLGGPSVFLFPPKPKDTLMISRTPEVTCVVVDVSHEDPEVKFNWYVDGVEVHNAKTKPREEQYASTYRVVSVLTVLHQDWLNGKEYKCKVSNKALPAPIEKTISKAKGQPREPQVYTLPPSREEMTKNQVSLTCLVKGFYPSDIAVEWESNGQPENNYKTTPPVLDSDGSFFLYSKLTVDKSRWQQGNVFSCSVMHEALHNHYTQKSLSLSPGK
light: QVLTQSPSSLSASVGDRVTINCQASQSVYDNNYLAWYQQKPGKVPKQLIYSTSTLASGVPSRFSGSGSGTDFTLTISSLQPEDVATYYCLGSYDCSSGDCFVFGGGTKVEIKRTVAAPSVFIFPPSDEQLKSGTASVVCLLNNFYPREAKVQWKVDNALQSGNSQESVTEQDSKDSTYSLSSTLTLSKADYEKHKVYACEVTHQGLSSPVTKSFNRGEC
B6: Antibody Ab8 (antibody, human IgG1, kappa, N297A, V domains shown)
VH: EVQLVESGGGLVQPGGSLRLSCAVSGIDLSNHYMQWVRQAPGKGLEWVGVVGINGRTYYASWAKGRFTISRDNSKTTVYLQMNSLRAEDTAVYFCARGDIWGQGTLVTVSS
VL: QVLTQSPSSLSASVGDRVTINCQASQSVYNYNYLAWYQQKPGKVPKQLIYSTSTLASGVPSRFSGSGSGTDFTLTISSLQPEDVATYYCLGSYDCSTGDCFVFGGGTKVEIKR
notes: as for B1
B7: Antibody Ab5 (antibody, human IgG1, kappa, N297A)
heavy: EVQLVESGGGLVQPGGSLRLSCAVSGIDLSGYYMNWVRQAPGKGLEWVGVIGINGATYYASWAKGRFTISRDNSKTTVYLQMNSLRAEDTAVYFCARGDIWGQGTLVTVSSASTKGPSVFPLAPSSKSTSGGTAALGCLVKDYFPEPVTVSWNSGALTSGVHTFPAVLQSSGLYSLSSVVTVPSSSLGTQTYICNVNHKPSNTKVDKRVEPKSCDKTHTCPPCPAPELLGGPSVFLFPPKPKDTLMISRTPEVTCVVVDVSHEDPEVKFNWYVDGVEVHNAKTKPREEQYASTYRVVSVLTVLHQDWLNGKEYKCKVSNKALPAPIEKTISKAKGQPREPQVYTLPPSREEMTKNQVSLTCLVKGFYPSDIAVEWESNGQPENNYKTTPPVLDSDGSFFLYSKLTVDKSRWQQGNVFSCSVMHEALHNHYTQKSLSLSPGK
light: QVLTQSPSSLSASVGDRVTINCQASQSVYHNTYLAWYQQKPGKVPKQLIYDASTLASGVPSRFSGSGSGTDFTLTISSLQPEDVATYYCLGSYDCTNGDCFVFGGGTKVEIKRTVAAPSVFIFPPSDEQLKSGTASVVCLLNNFYPREAKVQWKVDNALQSGNSQESVTEQDSKDSTYSLSSTLTLSKADYEKHKVYACEVTHQGLSSPVTKSFNRGEC
B8: Antibody Ab14 (antibody, human IgG1, kappa, N297A)
heavy: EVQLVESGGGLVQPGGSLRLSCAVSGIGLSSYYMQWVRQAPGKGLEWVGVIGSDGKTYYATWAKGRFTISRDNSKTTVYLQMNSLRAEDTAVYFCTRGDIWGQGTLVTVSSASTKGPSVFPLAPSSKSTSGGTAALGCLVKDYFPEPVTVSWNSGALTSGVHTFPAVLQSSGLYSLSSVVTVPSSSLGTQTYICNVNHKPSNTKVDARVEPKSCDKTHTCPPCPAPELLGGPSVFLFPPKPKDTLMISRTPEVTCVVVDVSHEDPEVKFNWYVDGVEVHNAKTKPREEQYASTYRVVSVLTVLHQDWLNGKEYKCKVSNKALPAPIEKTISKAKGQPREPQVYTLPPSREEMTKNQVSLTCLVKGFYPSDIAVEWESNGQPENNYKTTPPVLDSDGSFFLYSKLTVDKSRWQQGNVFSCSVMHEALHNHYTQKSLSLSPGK
light: QVLTQSPSSLSASVGDRVTINCQASQNVYNNNYLAWYQQKPGKVPKQLIYSTSTLASGVPSRFSGSGSGTDFTLTISSLQPEDVATYYCLGSYDCSRGDCFVFGGGTKVEIKRTVAAPSVFIFPPSDEQLKSGTASVVCLLNNFYPREAKVQWKVDNALQSGNSQESVTEQDSKDSTYSLSSTLTLSKADYEKHKVYACEVTHQGLSSPVTKSFNRGEC
notes: as for B1
B9: Antibody Ab1 (antibody, human IgG1, kappa, N297A, V domains shown)
VH: QSLEESGGRLVTPGTPLTLTCTVSGLDLSSYYMQWVRQAPGKGLEWIGVIGINDNTYYASWAKGRFTISRASSTTVDLKMTSLTTEDTATYFCARGDIWGPGTLVTVSS
VL: QVLTQTASPVSAAVGSTVTINCQASQSVYDNNYLAWYQQKPGQPPKQLIYSTSTLASGVSSRFKGSGSGTQFTLTISDLECADAATYYCLGSYDCSSGDCFVFGGGTEVVVKR
notes: Chimeric anti-CGRP antibody (rabbit variable regions, human gamma-1 and kappa constant regions), full length
B10: Antibody Ab9 (antibody, human IgG1, kappa, N297A, V domains shown)
VH: QSLEESGGRLVTPGTPLTLTCTVSGIGLSSYYMQWVRQSPGRGLEWIGVIGSDGKTYYATWAKGRFTISKTSSTTVDLRMASLTTEDTATYFCTRGDIWGPGTLVTVSS
VL: QVLTQTPSPVSAAVGSTVTINCQASQNVYNNNYLAWYQQKPGQPPKQLIYSTSTLASGVSSRFRGSGSGTQFTLTISDVQCDDAATYYCLGSYDCSRGDCFVFGGGTEVVVKR
notes: Chimeric anti-CGRP antibody, full length
B11: Antibody Ab4 (antibody, human IgG1, kappa, N297A, V domains shown)
VH: QSLEESGGRLVTPGTPLTLTCSVSGIDLSGYYMNWVRQAPGKGLEWIGVIGINGATYYASWAKGRFTISKTSSTTVDLKMTSLTTEDTATYFCARGDIWGPGTLVTVSS
VL: QVLTQTPSPVSAAVGSTVTINCQASQSVYHNTYLAWYQQKPGQPPKQLIYDASTLASGVPSRFSGSGSGTQFTLTISGVQCNDAAAYYCLGSYDCTNGDCFVFGGGTEVVVKR
B12: Antibody Ab7 (antibody, human IgG1, kappa, N297A, V domains shown)
VH: QEQLKESGGRLVTPGTSLTLTCTVSGIDLSNHYMQWVRQAPGKGLEWIGVVGINGRTYYASWAKGRFTISRTSSTTVDLKMTRLTTEDTATYFCARGDIWGPGTLVTVSS
VL: QVLTQTASPVSAAVGSTVTINCQASQSVYNYNYLAWYQQKPGQPPKQLIYSTSTLASGVSSRFKGSGSGTQFTLTISDVQCDDAATYYCLGSYDCSTGDCFVFGGGTEVVVKR
notes: as for B10
B13: Antibody Ab11 (antibody, human IgG1, kappa, N297A, V domains shown)
VH: QSLEESGGRLVTPGGSLTLTCTVSGIDVTNYYMQWVRQAPGKGLEWIGVIGVNGKRYYASWAKGRFTISKTSSTTVDLKMTSLTTEDTATYFCARGDIWGPGTLVTVSS
VL: QVLTQTASPVSPAVGSTVTINCRASQSVYYNNYLAWYQQKPGQPPKQLIYSTSTLASGVSSRFKGSGSGTQFTLTISDVQCDDAATYYCLGSYDCSNGDCFVFGGGTEVVVKR
notes: as for B10

Biological target: T1, human Calcitonin Gene Related Peptide …
Assay: ELISA, plates coated with CGRPα, anti-human IgG Fc-HRP detection
Experimental: To characterize recombinant expressed antibodies for their ability to bind to human-CGRPα, antibody-containing solutions were tested by ELISA. All incubations were done at room temperature. Briefly, Immulon IV plagtes (Thermo Scientific), were coated with a CGRPα containing solution (1 ut/mL in PBS) for 2 hours. CGRPα-coated plates were then washed three times in wash buffer (PBS, 0.05% Tween-20). The plates were then blocked using a blocking solution (PBS, 0.5% fish skin gelatin, 0.05% Tween-20) for approximately one hour. The blocking solution was then removed and the plates were then incubated with a dilution series of the antibody being tested for approximately one hour. At the end of this incubation, the plate was washed three times with wash buffer and further incubated with a secondary antibody containing solution (Peroxidase conjugated affinipure F(ab′)2 fragment goat anti-human IgG, Fc fragment specific (Jackson Immunoresearch) for approximately 45 minutes and washed three times. At that point a substrate solution (TMB peroxidase substrate, BioFx) and incubated for 3 to 5 minutes in the dark. The reaction was stopped by addition of a HCl containing solution (0.5M) and the plate was read at 450 nm in a plate-reader.

Binding result, binds:
B1
B2
B3
B4
B5
B6
B7
B8
B9
B10
B11
B12
B13
